# Laboratory results published in patent US20190269788A1 (PIERRE FABRE MEDICAMENT, published 2019).
# Read-outs that look alike come from different tables or passages of the source.
# T1: rhMer-Fc (R and D Systems, cat No 891-MR) (human, UniProt Q12866 26-499, limits assumed)
# T1 construct: Bought
# T1 sequence (looked up): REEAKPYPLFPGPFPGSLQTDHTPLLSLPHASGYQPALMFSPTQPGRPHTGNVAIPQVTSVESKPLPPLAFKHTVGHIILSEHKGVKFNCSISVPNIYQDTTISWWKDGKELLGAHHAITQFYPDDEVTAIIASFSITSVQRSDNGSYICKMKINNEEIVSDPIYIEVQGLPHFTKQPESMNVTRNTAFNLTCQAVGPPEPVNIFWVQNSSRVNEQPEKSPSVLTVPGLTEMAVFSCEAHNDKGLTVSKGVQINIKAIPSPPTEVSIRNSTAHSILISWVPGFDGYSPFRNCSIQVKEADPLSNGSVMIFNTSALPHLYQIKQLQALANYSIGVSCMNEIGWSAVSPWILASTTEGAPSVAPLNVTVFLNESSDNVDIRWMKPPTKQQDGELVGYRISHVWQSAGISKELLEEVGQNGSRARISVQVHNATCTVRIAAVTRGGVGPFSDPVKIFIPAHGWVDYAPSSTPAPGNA
# T2: rhDtk-Fc (R and D Systems, cat No 859-DK) (human, UniProt Q06418 41-428, limits assumed)
# T2 construct: Bought
# T2 sequence (looked up): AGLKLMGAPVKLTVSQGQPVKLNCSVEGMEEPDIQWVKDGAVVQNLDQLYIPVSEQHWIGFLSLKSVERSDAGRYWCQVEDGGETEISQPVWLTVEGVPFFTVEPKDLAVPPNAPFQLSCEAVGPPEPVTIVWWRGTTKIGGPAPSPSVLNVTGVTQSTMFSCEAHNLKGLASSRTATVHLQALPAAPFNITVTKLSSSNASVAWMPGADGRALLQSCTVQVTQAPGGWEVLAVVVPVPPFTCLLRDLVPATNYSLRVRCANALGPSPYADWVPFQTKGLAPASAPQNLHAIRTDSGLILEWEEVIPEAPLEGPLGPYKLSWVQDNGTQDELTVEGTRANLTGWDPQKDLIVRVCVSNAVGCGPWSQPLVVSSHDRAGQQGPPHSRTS
# Experiments:
# [1] = target: T3, human IGF-1R, native, on MCF-7 cells or on hIGF-1R transfected cells (human, UniProt P08069 31-1367); test: cell-based or functional assay
# [2] = target: T3, human IGF-1R, native, on MCF-7 cells or …; test: cell-based or functional assay; remark: listed apart in the source
# [3] = target: T3, human IGF-1R, native, on MCF-7 cells or …; test: cell-based or functional assay; remark: listed apart in the source
# [4] = target: T4, rhAxl-Fc protein (R and D Systems, cat No 154-AL) (human, UniProt P30530 26-451); test: ELISA on coated rhAxl-Fc, anti-mouse IgG-HRP, TMB
# T4 construct: Bought; also called recombinant human Axl-Fc
# Method: (§1) Then 1/2 serial dilutions were done over 12 columns. Plates were washed and a goat anti-mouse (Jackson) specific IgG-HRP was added for 1 h at 37° C. Reaction development was performed using the TMB substrate solution. […] Coating controls were performed in presence of a goat anti-human IgG Fc polyclonal serum labelled with HRP (Jackson, ref 109-035-098) and/or in presence of a HRP-coupled anti-Histidine antibody (R and D Systems, ref: MAB050H).
# [5] = target: T1, rhMer-Fc (R and D Systems, cat No …); test: ELISA on coated rhMer-Fc, anti-mouse IgG-HRP, TMB
# Method: as §1
# [6] = target: T2, rhDtk-Fc (R and D Systems, cat No …); test: ELISA on coated rhDtk-Fc, anti-mouse IgG-HRP, TMB
# Method: as §1
# [7] = target: T5, human Axl receptor on human tumor cells (SN12C and other lines) (human, UniProt P30530 26-894); test: FACS titration on SN12C cells, anti-mouse Alexa 488
# T5 construct: also called membrane Axl receptor; cell-surface Axl
# Method: (§2) After 3 washes in phosphate-buffered saline (PBS) supplemented with 1% BSA and 0.01% NaN₃, cells were incubated with secondary antibody Goat anti-mouse Alexa 488 (1/500° dilution) for 20 minutes at 4° C. After 3 additional washes in PBS supplemented with 1% BSA and 0.1% NaN₃, cells were analyzed by FACS (Facscalibur, Becton-Dickinson). At least 5000 cells were assessed to calculate the mean value of fluorescence intensity.
# [8] = target: T5, human Axl receptor on human tumor cells …; test: FACS titration on MDA-MB-231 cells, anti-mouse Alexa 488
# Method: as §2
# T5 sequence (P30530 26-894 D266N limits assumed): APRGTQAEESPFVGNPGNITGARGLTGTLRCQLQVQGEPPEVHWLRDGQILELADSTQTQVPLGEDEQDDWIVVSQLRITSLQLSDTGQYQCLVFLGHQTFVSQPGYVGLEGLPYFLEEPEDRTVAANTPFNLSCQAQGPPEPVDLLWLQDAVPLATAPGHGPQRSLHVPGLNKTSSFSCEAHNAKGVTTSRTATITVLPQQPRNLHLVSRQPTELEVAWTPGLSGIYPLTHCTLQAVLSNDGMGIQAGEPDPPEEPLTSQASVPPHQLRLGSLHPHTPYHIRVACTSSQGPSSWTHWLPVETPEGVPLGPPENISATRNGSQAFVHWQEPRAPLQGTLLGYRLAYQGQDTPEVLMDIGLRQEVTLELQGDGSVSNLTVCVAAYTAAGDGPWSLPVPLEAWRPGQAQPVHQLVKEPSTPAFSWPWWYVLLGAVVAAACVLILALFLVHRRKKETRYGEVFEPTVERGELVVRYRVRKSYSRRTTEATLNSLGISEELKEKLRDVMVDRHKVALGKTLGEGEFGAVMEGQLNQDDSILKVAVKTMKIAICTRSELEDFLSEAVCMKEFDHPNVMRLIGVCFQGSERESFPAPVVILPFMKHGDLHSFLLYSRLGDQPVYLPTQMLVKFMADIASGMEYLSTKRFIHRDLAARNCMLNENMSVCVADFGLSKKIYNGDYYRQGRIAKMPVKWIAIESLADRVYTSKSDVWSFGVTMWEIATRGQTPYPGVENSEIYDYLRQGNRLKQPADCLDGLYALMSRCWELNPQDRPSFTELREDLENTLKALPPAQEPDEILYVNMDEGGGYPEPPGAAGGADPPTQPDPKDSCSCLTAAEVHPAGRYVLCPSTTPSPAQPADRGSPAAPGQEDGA
# T4 sequence (P30530 26-451 D266N): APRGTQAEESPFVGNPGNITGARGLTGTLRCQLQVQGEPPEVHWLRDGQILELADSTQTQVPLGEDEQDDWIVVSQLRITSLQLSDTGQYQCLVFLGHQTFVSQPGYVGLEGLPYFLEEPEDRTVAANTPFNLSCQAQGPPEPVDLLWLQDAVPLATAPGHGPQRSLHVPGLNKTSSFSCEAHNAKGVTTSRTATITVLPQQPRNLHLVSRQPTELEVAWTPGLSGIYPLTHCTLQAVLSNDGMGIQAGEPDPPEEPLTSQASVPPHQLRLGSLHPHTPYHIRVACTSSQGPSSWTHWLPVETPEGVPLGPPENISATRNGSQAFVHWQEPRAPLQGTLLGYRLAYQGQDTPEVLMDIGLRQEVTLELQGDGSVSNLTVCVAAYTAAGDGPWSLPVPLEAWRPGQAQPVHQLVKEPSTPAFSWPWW
"phosphorylation of hIGF-1R as % of phosphorylation induced by IGF-1 (MCF-7, 10 µg/ml Ab) [1] [%]","ΔMFI (MCF-7, 4°C minus 37°C, 4 h) [2] [MFI]",inhibition of hIGF-1R phosphorylation in response to IGF-1 (MCF-7) [1] [%],Binder,also measured
< 10,369,–,"c213B10 (antibody, human IgG1, kappa) heavy: not shown light: DIQMTQTTSSLSASLGDRVTISCRASQDISKYLNWYQQQPDGTIKLLIYYTSRLHSGVPSRFSGRGSGTDYSLTITNLEQEDIATYFCQQGSALPYTFGGGTKLEIKRTVAAPSVFIFPPSDEQLKSGTASVVCLLNNFYPREAKVQWKVDNALQSGNSQESVTEQDSKDSTYSLSSTLTLSKADYEKHKVYACEVTHQGLSSPVTKSFNRGEC",–
–,–,> 80,"m219D6 (antibody, V domains shown) VH: QVQLQQSGPELVKPGDSVKMSCKASGYSFTSYFIHWVKQRPGQGLEWIGWIWPGDGSTKYNEKFKGKTTLTTDKSSSTAYMFLNSLTSEDSAVYFCASPMITPNYAMDYWGQGASVTVSS VL: DIQMTQTTSSLSASLGDRVTISCRASQDISKYLNWYQQQPDGTVKLLIYYTSRLHSGVPSRFSGRGSGTDYSLTISNLEQEDIATYFCQQGSTLPYTFGGGTKLEIK",–
–,–,> 80,"m208F2 (antibody, V domains shown) VH: QVQLQQSGPELVKPGASVKMSCKASGYTFTSYYIYWVKQRPGQGLEWLGWIWPGDGSTKYNEKFKDKTTLTADKSSNTAYMFLSSLTSEDSAVYFCASPMITPNYAMDYWGQGASVTVSS VL: DIQMTQTTSSLSASLGDRVTISCRASQDISKYLNWYQQQPDGTIKLLIYYTSRLHSGVPSRFSGRGSGTDYSLTISNVEQEDIATYFCQQGSTLPYTFGGGTKLEIK","% internalization (MCF-7, 10 µg/ml) [3]: 88%; ΔMFI (MCF-7, 4°C minus 37°C, 4 h) [3]: 294 MFI"
< 10,288,–,"c208F2 (antibody, human IgG1, kappa, V domains shown) VH: QVQLQQSGPELVKPGASVKMSCKASGYTFTSYYIYWVKQRPGQGLEWLGWIWPGDGSTKYNEKFKDKTTLTADKSSNTAYMFLSSLTSEDSAVYFCASPMITPNYAMDYWGQGASVTVSS VL: DIQMTQTTSSLSASLGDRVTISCRASQDISKYLNWYQQQPDGTIKLLIYYTSRLHSGVPSRFSGRGSGTDYSLTISNVEQEDIATYFCQQGSTLPYTFGGGTKLEIKR","% internalization (MCF-7, 10 µg/ml) [3]: 82%; ΔMFI (MCF-7, 4°C minus 37°C, 4 h) [3]: 278 MFI"
–,–,> 80,"m213B10 (antibody, V domains shown) VH: QVQLQQSGSELVKPGASVKMSCKASGYTFTSYYIHWVKQRPGQGLEWIGWIWPGDGSTKYNERFKGKTTLTADKSSSTAYMFLSSLTSEDSAVYFCASPMITPNYAMDYWGQGASVTVSS VL: DIQMTQTTSSLSASLGDRVTISCRASQDISKYLNWYQQQPDGTIKLLIYYTSRLHSGVPSRFSGRGSGTDYSLTITNLEQEDIATYFCQQGSALPYTFGGGTKLEIK",–
< 10,353,–,"c219D6 (antibody, human IgG1, kappa, V domains shown) VH: QVQLQQSGPELVKPGDSVKMSCKASGYSFTSYFIHWVKQRPGQGLEWIGWIWPGDGSTKYNEKFKGKTTLTTDKSSSTAYMFLNSLTSEDSAVYFCASPMITPNYAMDYWGQGASVTVSS VL: DIQMTQTTSSLSASLGDRVTISCRASQDISKYLNWYQQQPDGTVKLLIYYTSRLHSGVPSRFSGRGSGTDYSLTISNLEQEDIATYFCQQGSTLPYTFGGGTKLEIKR",–

# More lines, now with the values behind:
Binder,"phosphorylation of hIGF-1R as % of phosphorylation induced by IGF-1 (MCF-7, 10 µg/ml Ab) [1] [%]","ΔMFI (MCF-7, 4°C minus 37°C, 4 h) [2] [MFI]",inhibition of hIGF-1R phosphorylation in response to IGF-1 (MCF-7) [1] [%],also measured
"c212A11 (antibody, human IgG1, kappa, V domains shown) VH: QVQLQQSGPELVKPGASVKMSCKASGYTFTSYYIHWVKQRPGQGLEWIGWIWPGDGSTKYNEKFKGKTTLTADKSSSTAYMFLSSLTSEDSAVYFCASPMITPNYAMDYWGQGASVTVSS VL: DIQMTQTTSSLSASLGDRVTISCRASQDINKYLNWYQQQPDGTVKLLIYYTSRLHSGVPSRFSGRGSGTDYSLTISNLEQEDIATYFCQQGSTLPYTFGGGTKLEIKR",< 10,322,–,–
"m212A11 (antibody, V domains shown) VH: QVQLQQSGPELVKPGASVKMSCKASGYTFTSYYIHWVKQRPGQGLEWIGWIWPGDGSTKYNEKFKGKTTLTADKSSSTAYMFLSSLTSEDSAVYFCASPMITPNYAMDYWGQGASVTVSS VL: DIQMTQTTSSLSASLGDRVTISCRASQDINKYLNWYQQQPDGTVKLLIYYTSRLHSGVPSRFSGRGSGTDYSLTISNLEQEDIATYFCQQGSTLPYTFGGGTKLEIK",–,–,> 80,–
"m214F8 (antibody, V domains shown) VH: QVQLQQSGSELVKPGASVKLSCKASGYTFTSYYIHWVKQRPGQGLEWIGWIWPGDGSTKYNERFKGKTTLTADKSSSTAYMFLSSLTSEDSAVYFCASPMITPNYAMDYWGQGASVTVSS VL: DIQMTQTTSSLSASLGDRVTFSCRASQDISKYLNWYQQQPDGTIKLLIYYTSRLHSGVPSRFSGRGSGTDYSLTITNLEQEDIATYFCQQGSALPYTFGGGTKLEIK",–,–,> 80,–
"c214F8 (antibody, human IgG1, kappa) heavy: not shown light: DIQMTQTTSSLSASLGDRVTFSCRASQDISKYLNWYQQQPDGTIKLLIYYTSRLHSGVPSRFSGRGSGTDYSLTITNLEQEDIATYFCQQGSALPYTFGGGTKLEIKRTVAAPSVFIFPPSDEQLKSGTASVVCLLNNFYPREAKVQWKVDNALQSGNSQESVTEQDSKDSTYSLSSTLTLSKADYEKHKVYACEVTHQGLSSPVTKSFNRGEC",< 10,403,–,–
"m1613F12 (antibody, V domains shown, Murine monoclonal antibody, detected with anti-mouse IgG; also called murine 1613F12; hybridoma I-4505) VH: EVHLQQSGAELVKPGASVKLSCTASGFNIRDTYIHWVKQRPEQGLEWIGRLDPANGHTKYGPNFQGRATMTSDTSSNTAYLQLSSLTSEDTAVYYCARGAYYYGSSGLFYFDYWGQGTTLSVSS VL: DVQITQSPSYLATSPGETITINCRASKSISKYLAWYQEKPGKTNKLLIYSGSTLQSGVPSRFSGSGSGTDFTLTISSLEPEDFAMYFCQQHHEYPLTFGAGTELELK",–,–,–,EC50 (read off the curve) [4]: ~1 nM; binding result [5]: no binding (tested: log (M) -7.5 (about 3e-8 M)); binding result [6]: no binding (tested: log (M) -7.5 (about 3e-8 M)); EC50 (read off the curve) [7]: ~900 pM; EC50 (read off the curve) [8]: ~1 nM
"hz208F2 VH3/VL3 (antibody, human IgG1, kappa, V domains shown) VH: QVQLVQSGAEVKKPGASVKMSCKASGYTFTSYYIYWVKQAPGQGLEWLGWIWPGDGSTKYNEKFQGRVTLTADKSSNTAYMFLSSLRSEDTAVYFCASPMITPNYAMDYWGQGTLVTVSS VL: DIQMTQSPSSLSASVGDRVTISCRASQDISKYLNWYQQKPGKAPKLLIYYTSRLHSGVPSRFSGRGSGTDYSLTISNLQPEDFATYFCQQGSTLPYTFGGGTKVEIKR",–,–,–,"% internalization (MCF-7, 10 µg/ml) [3]: 87%; ΔMFI (MCF-7, 4°C minus 37°C, 4 h) [3]: 344 MFI"
